Numbering of substitutions follows the chain as printed.
What was measured:
[1] = target: T1, NadR H80A H80A (Salmonella enterica serovar Typhimurium) (UniProt P24518); experiment: EMSA; conditions: EMSA: 50 ng DNA, 20 mM Tris pH 7.5, 100 mM NaCl, 10% glycerol, 4 mM MgCl2, 1% NP-40, 1 mM DTT, 25 uL, 20 min room temperature; 6% native PAGE, 0.5x TBE, SYBR …
T1 sequence: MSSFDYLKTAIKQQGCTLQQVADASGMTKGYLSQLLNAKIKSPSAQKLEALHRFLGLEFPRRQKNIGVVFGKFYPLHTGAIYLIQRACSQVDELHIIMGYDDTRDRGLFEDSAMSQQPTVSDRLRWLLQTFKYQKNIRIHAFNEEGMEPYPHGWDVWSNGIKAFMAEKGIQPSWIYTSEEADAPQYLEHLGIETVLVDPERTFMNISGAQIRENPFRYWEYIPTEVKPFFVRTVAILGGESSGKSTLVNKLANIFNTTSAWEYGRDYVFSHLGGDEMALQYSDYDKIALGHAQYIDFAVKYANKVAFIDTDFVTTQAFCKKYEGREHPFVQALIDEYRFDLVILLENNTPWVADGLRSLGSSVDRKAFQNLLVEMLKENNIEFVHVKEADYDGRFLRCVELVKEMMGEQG

[2] = target: T2, NadR R212A R212A (Salmonella enterica serovar Typhimurium) (UniProt P24518); experiment: EMSA; conditions: EMSA: 50 ng DNA, 20 mM Tris pH 7.5, 100 mM NaCl, 10% glycerol, 4 mM MgCl2, 1% NP-40, 1 mM DTT, 25 uL, 20 min room temperature; 6% native PAGE, 0.5x TBE, SYBR …
T2 sequence: T1 sequence with A80H, R212A

| Sequence | binding [1] | binding [2] |
| --- | --- | --- |
| GCTCATCGTGGCTTCTCGTTTTACTGACTTAACGAAACAACCGAATGAAAGCGTAATAAACGCCACAATCGGTTAATTTGTTTTATATGCTAAACAAGATAGCTGATTCAATAAGGAAAGTCACAATAATTACGTAGCCCCGTATCTGATGGCGGCGTAACGTCTTATCTGGCCTACGTGAGCGGTGCCGTCTGTAGGCCTGAT (double strand) [nadA-pnuC promoter] | binds | binds |
| GGTTCTTGTTTAATTTACTAAACATGGTTGCGGCAGATTAGCACTATATGGCGCTAAAAAGCACGTTATGATTTCGCTGGTGTTGTGCTTATTAAACATAAAATAAAAATACGGCGAGAGATAAACGGCAAAAAATATTTTATAGGGCAGGGTGTTAGCGTCGGATTTTGTAGTGAAATAAAGATGCTGTTAGGTTACTC (double strand) [nadB promoter] | binds | binds |

Reference: paper PMC12421817, “c-di-GMP regulates bacterial NAD biosynthesis via targeting the transcriptional repressor NadR” (mBio, 2025)
